Laboratory results from the supplement of paper PMC10126150.
± gives the standard deviation of the averaged measurements.

Test system: ATP
Assay: switch fluorescence ratio, 500 uM ATP over buffer (Cy3 cluster intensity, sum of 5 cycles each) (fold (ratio)); higher = stronger signal-on switching upon ATP binding; sequences stand for … in TCGTCGGCAGCGTCAGATGTGTATAAGAGACAGTTTTTTTTTTTTTTTTTTTTTTTTT…TC
Details: aptamer strand: ATP DNA aptamer (quencher-CACCTGGGGGAGTATTGCGGAGGAAGG + anchor), 100 nM annealed; ATP concentration: 500 uM
Method in brief: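 Cy3-labelled switching-strand clusters on a modified Illumina MiSeq flow-cell were annealed to 100 nM quencher-labelled ATP aptamer, imaged in selection buffer, then imaged after 15 min with 500 uM ATP at 22 °C. Five buffer/ATP cycles ran, with NaOH stripping and re-annealing between them. The fluorescence ratio is summed target-cycle over summed buffer-cycle Cy3 intensity per cluster, averaged per switch-domain sequence. Clusters outside 100-1000 RFU were excluded.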
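Further: ATP exposure 15 min at 22 °C before imaging.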

Sequence	switch fluorescence ratio
GGGGACGAAA	0.997 ± 0.013
GGGGACGAAT	1.002 ± 0.0025
GGGGACGACC	1.03 ± 0.017
GGGGACGGGC	1.04 ± 0.075
GGGGACTGGG	1 ± 0.058
GGGGACTTAG	0.9854 ± 0.0025
GGGGACTTGG	1 ± 0.027
GGGGAGACTG	0.956 ± 0.028
GGGGAGGAAA	0.999 ± 0.029
GGGGAGGCAC	0.9854 ± 0.002
GGGGAGGGGA	1.01 ± 0.04
GGGGAGGGTG	1.05 ± 0.074
GGGGAGGTTG	0.991 ± 0.037
GGGGAGGTTT	0.966 ± 0.02
GGGGAGTCGA	1.03 ± 0.068
GGGGAGTGAA	0.992 ± 0.031
GGGGAGTTAC	1.35 ± 0.44
GGGGATAAGA	0.985 ± 0.036
GGGGATAAGC	0.992 ± 0.048
GGGGATACGC	1.03 ± 0.012
GGGGATACTG	1.31 ± 0.33
GGGGATCGTT	1.02 ± 0.021
GGGGATGAGC	1.04 ± 0.037
GGGGATGCAG	0.985 ± 0.049
GGGGATGTGC	1.01 ± 0.04

Sequence	switch fluorescence ratio
GGGGATTAAT	0.99 ± 0.042
GGGGATTACG	0.984 ± 0.026
GGGGATTAGG	0.988 ± 0.015
GGGGATTATG	0.997 ± 0.046
GGGGATTCAA	0.988 ± 0.018
GGGGATTGCT	0.986 ± 0.025
GGGGATTTTG	0.9746 ± 0.0022
GGGGATTTTT	1 ± 0.035
GGGGCAAATT	1.05 ± 0.12
GGGGCAACGG	1.05 ± 0.12
GGGGCACTGG	1.03 ± 0.028
GGGGCAGAGG	0.997 ± 0.043
GGGGCAGGTG	1.27 ± 0.39
GGGGCATAAG	1.01 ± 0.013
GGGGCATGAG	1.04 ± 0.021
GGGGCATTTA	0.9643 ± 0.0047
GGGGCCAGCT	0.974 ± 0.043
GGGGCCATTT	0.99 ± 0.033
GGGGCCCAGG	1 ± 0.067
GGGGCCGAAT	1.01 ± 0.021
GGGGCGATTG	1.02 ± 0.013
GGGGCGCGGA	1.09 ± 0.12
GGGGCGGAGG	0.987 ± 0.047
GGGGCGGGGG	1.02 ± 0.043
GGGGCGTGCA	1.03 ± 0.034

Sequence	switch fluorescence ratio
GGGGCGTTTT	0.998 ± 0.023
GGGGCTAAGA	0.993 ± 0.015
GGGGCTATGT	1.08 ± 0.14
GGGGCTCATT	0.983 ± 0.021
GGGGCTGGAG	1.03 ± 0.063
GGGGCTGTGC	0.976 ± 0.034
GGGGCTTACG	0.9893 ± 0.0087
GGGGCTTGCG	0.948 ± 0.045
GGGGCTTTAA	1.18 ± 0.35
GGGGCTTTGG	0.98 ± 0.025
GGGGCTTTTA	0.97 ± 0.01
GGGGGAAACG	0.989 ± 0.031
GGGGGAAAGA	0.989 ± 0.047
GGGGGAAAGC	0.984 ± 0.049
GGGGGAAAGG	1 ± 0.025
GGGGGAACAC	1.05 ± 0.044
GGGGGAAGAT	1.01 ± 0.074
GGGGGAGGCC	1.02 ± 0.056
GGGGGAGGGG	1 ± 0.043
GGGGGAGGTA	0.977 ± 0.031
GGGGGAGGTC	0.989 ± 0.021
GGGGGAGTTA	0.989 ± 0.026
GGGGGATAGT	0.998 ± 0.032
GGGGGATCGA	1.04 ± 0.086
GGGGGATCTT	1 ± 0.03

Sequence	switch fluorescence ratio
GGGGGATGG	0.994 ± 0.016
GGGGGATGTA	0.948 ± 0.032
GGGGGATGTC	1 ± 0.034
GGGGGATTTC	1.12 ± 0.26
GGGGGATTTG	0.998 ± 0.013
GGGGGCACTC	0.986 ± 0.031
GGGGGCCACT	0.975 ± 0.041
GGGGGCCGGG	1.01 ± 0.052
GGGGGCCTGT	1.01 ± 0.035
GGGGGCGCGG	0.996 ± 0.015
GGGGGCGGAA	1 ± 0.027
GGGGGCGGGT	1 ± 0.044
GGGGGCTAAG	1.026 ± 0.0039
GGGGGCTATG	0.99 ± 0.015
GGGGGCTTAG	0.988 ± 0.038
GGGGGGACGC	1.02 ± 0.013
GGGGGGACTA	1.03 ± 0.031
GGGGGGAGCC	0.996 ± 0.015
GGGGGGATGA	0.992 ± 0.024
GGGGGGCAAA	1 ± 0.015
GGGGGGCAGA	1 ± 0.029
GGGGGGCATT	0.99 ± 0.033
GGGGGGCGCA	1.02 ± 0.038
GGGGGGCGCG	1.01 ± 0.025
GGGGGGCTAG	1 ± 0.058

Sequence	switch fluorescence ratio
GGGGGGGCAA	1.24 ± 0.48
GGGGGGGCCA	1.01 ± 0.041
GGGGGGGCTT	0.998 ± 0.031
GGGGGGGGT	1 ± 0.02
GGGGGGGGTA	1 ± 0.044
GGGGGGTAGT	1.02 ± 0.067
GGGGGGTATT	0.987 ± 0.037
GGGGGGTGGG	0.996 ± 0.039
GGGGGGTTCT	1.01 ± 0.042
GGGGGGTTGT	1.03 ± 0.17
GGGGGTAAAG	1.01 ± 0.022
GGGGGTACCG	0.977 ± 0.021
GGGGGTACCT	1.02 ± 0.019
GGGGGTACGC	1.03 ± 0.028
GGGGGTACTT	1 ± 0.03
GGGGGTATGC	1.05 ± 0.15
GGGGGTCACA	0.989 ± 0.029
GGGGGTCATG	1.02 ± 0.073
GGGGGTCCGT	1 ± 0.025
GGGGGTGAAA	0.987 ± 0.011
GGGGGTGACC	1.02 ± 0.025
GGGGGTGAGG	1.01 ± 0.043
GGGGGTGAGT	1.02 ± 0.012
GGGGGTGATC	0.979 ± 0.024
GGGGGTGCCT	0.986 ± 0.064

Sequence	switch fluorescence ratio
GGGGGTGCGG	0.977 ± 0.044
GGGGGTGGGA	1 ± 0.019
GGGGGTGTAG	1.008 ± 0.0053
GGGGGTTCAG	0.978 ± 0.04
GGGGGTTGAT	0.991 ± 0.069
GGGGGTTGGA	1.01 ± 0.032
GGGGGTTTAC	1.01 ± 0.013
GGGGGTTTAT	1.01 ± 0.017
GGGGGTTTTT	0.997 ± 0.033
GGGGTAAAGG	1.04 ± 0.11
GGGGTAAATT	1 ± 0.039
GGGGTAACGT	0.983 ± 0.02
GGGGTAAGGA	1 ± 0.021
GGGGTAATTG	1.01 ± 0.019
GGGGTACCGG	1.02 ± 0.032
GGGGTACGCA	1.02 ± 0.015
GGGGTACGGG	1.05 ± 0.024
GGGGTACGGT	1 ± 0.018
GGGGTAGCGG	0.92645 ± 0.0002
GGGGTAGGGT	0.997 ± 0.032
GGGGTAGGTA	0.96 ± 0.038
GGGGTAGTAC	1.03 ± 0.026
GGGGTAGTTG	0.99 ± 0.028
GGGGTATATC	1 ± 0.024
GGGGTATATT	0.9938 ± 0.0062

Sequence	switch fluorescence ratio
GGGGTATGCC	1.01 ± 0.027
GGGGTATGGC	1.03 ± 0.023
GGGGTATGTA	0.987 ± 0.055
GGGGTCACTA	0.9559 ± 0.009
GGGGTCAGAC	1 ± 0.022
GGGGTCAGGG	1.02 ± 0.026
GGGGTCATGC	0.97 ± 0.041
GGGGTCGCTG	0.965 ± 0.013
GGGGTCGGCC	0.995 ± 0.018
GGGGTCGTCA	1.04 ± 0.0072
GGGGTCGTCT	1.02 ± 0.015
GGGGTCTAAT	0.999 ± 0.048
GGGGTCTGAG	0.989 ± 0.019
GGGGTCTTAT	0.996 ± 0.038
GGGGTGAAGC	1.02 ± 0.036
GGGGTGAAT	1.01 ± 0.021
GGGGTGAC	1.0027 ± 0.00099
GGGGTGAGAA	1.02 ± 0.046
GGGGTGAGCC	0.978 ± 0.017
GGGGTGAGGT	0.997 ± 0.016
GGGGTGCACG	0.988 ± 0.051
GGGGTGCCTT	1.037 ± 0.0021
GGGGTGCGCG	0.968 ± 0.025
GGGGTGCGGG	0.99 ± 0.032
GGGGTGGTAG	1.01 ± 0.012

Sequence	switch fluorescence ratio
GGGGTGGTGG	0.9888 ± 0.007
GGGGTGGTTG	0.986 ± 0.036
GGGGTGTATA	1 ± 0.045
GGGGTGTATT	0.984 ± 0.025
GGGGTGTCTT	0.992 ± 0.031
GGGGTGTGCG	0.9883 ± 0.0051
GGGGTGTTCA	0.999 ± 0.047
GGGGTGTTGG	1.01 ± 0.019
GGGGTTAGCG	0.991 ± 0.021
GGGGTTAGTT	0.993 ± 0.023
GGGGTTATAA	0.998 ± 0.043
GGGGTTATCG	0.99 ± 0.029
GGGGTTATCT	1.01 ± 0.026
GGGGTTATTA	0.992 ± 0.017
GGGGTTCACG	0.988 ± 0.005
GGGGTTCCGT	1 ± 0.025
GGGGTTCGGG	0.992 ± 0.017
GGGGTTCGTC	1 ± 0.044
GGGGTTCTCG	1.001 ± 0.0031
GGGGTTCTGC	0.952 ± 0.039
GGGGTTGCTG	1 ± 0.024
GGGGTTGGCT	0.995 ± 0.03
GGGGTTGTGT	0.996 ± 0.026
GGGGTTGTTA	0.988 ± 0.021
GGGGTTTAGC	0.996 ± 0.015
